Assay results taken from patent US20230192839A1, “ANTIBODIES HAVING CONDITIONAL AFFINITY AND METHODS OF USE THEREOF” (PFIZER INC., priority 2017, published 2023).

Tested on: MV4-11 cells
Assay: Sequential rounds of in vitro cytotoxicity assays with changing MTX concentration (reversible inhibition)
Assay type: cell-based, human
Settings: Round 0-1 no MTX, then 100 µM MTX at Round 1-2 and Round 2-3; FIGS. 9A and 9B
Experimental: The anti-CD33 clones tested in this example were: P03_A01, P07_C04, and P02_D09. In addition, a tool T cell was prepared as described in Example 4, as were untransduced T cells. Also, each of the different conditional CAR T cells described above was generated in triplicate from PBMC cells from three different human donors. The target cell line used in this assay was MV4-11; these cells were transduced to stably express GFP and firefly luciferase, as described in Example 5.
This experiment involved a series of in vitro cytotoxicity assays, in which co-cultures of T cells and MV4-11 target cells were incubated together for multiple rounds of sequential cytotoxicity assays, in which the MTX concentration changed at different rounds of the assays. In vitro cytotoxicity assays were carried out in 24-well plates by co-culturing 200,000 T cells with 200,000 MV4-11 cells, for each different T cells described above. In addition, each of the co-cultures contained either 100 µM MTX or 0 µM MTX at different times, as indicated by the schematics in FIGS. 9A and 9C. In both conditions, 1 mM leucovorin was supplemented to circumvent MTX toxicity. For each round of the assay, co-cultures were maintained in a final volume of 500 µl of RPMI 1640 medium at 37 C with 5% CO2 for 48 hours. At the end of each round, cells were spun down (250 × g, 10 minutes), supernatant was removed, and fresh media containing fresh MV4-11 cells, leucovorin, and optionally MTX were added according to the schematics shown in FIGS. 9A and 9C. Target cell killing was assessed and plotted as described in Example 4.
In comparing the different panels of FIGS. 9A-9D, note that the schematics shown in FIGS. 9A and 9C indicate the MTX concentration in the co-culture at the start of the assay for a given round, whereas the results from that assay are shown the next round number in FIGS. 9B and 9D, respectively. […]

B1: P02_D09: anti-CD33 clone with conditional affinity; VH SEQ ID NO: 35, VL SEQ ID NO: 36; also as scFv in CAR (antibody, V domains shown)
VH: QVQLVESGGGLVQAGGSLRLSCAASRRSSRSWAMHWVRQAPGKGLEWVAVISYDGRLKYYADSVKGRFTISRDNAEYLVYLQMNSLRAEDTAVYYCAAEEGDGGFFDYWGQGTLVTVSS
VL: QSVLTQPPSASGTPGQRVTISCSGSSSNIGSNYVNWYQQLPGTAPKLLIYRNNERPSGVPDRFSGSKSGTSASLAISGLRSEDEADYYCAAWDGSLSGRGVFGTGTKLTVL
modifications: Synthetic Antibody
notes: also as scFv in CAR
target cell killing when MTX is added to active CAR T cells ("on" to "off"): quick inhibition rates
